We go through one substance from US6613211B1, “Capillary electrokinesis based cellular assays” (Aclara BioSciences, Inc., priority 1999, dated 2003).

The target of experiment [1] is T1, fMLP receptor (Homo sapiens, UniProt P21462).
T1 sequence (P21462 1-350): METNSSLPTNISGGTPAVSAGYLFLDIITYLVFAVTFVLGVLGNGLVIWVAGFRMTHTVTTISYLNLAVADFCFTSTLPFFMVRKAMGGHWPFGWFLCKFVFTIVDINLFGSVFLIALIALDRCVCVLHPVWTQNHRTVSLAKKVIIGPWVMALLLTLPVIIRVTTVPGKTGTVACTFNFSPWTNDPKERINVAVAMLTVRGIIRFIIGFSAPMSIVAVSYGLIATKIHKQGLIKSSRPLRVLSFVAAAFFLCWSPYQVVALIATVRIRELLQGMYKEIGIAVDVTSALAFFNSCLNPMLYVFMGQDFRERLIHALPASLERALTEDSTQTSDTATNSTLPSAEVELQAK
Kind of experiment: Capillary cytometric competition of labeled fMLPK binding to cells with a high level of fMLP receptor (syringe pump). As to the method:
In the next study, pumping means was employed to move cells through a capillary. […] The buffer solution was 140 mM NaCl, 1 mM KH2PO4, 5 mM Na2HPO4, 1.5 mM CaCl2, 0.3 mM MgSO4, 1 mM MgCl2, 0.2% BSA. The cell concentration in the reservoir was 10^6/ml and the receptor concentration was 413 pM. […] […] The device was comprised of a reservoir having a volume of 500 μl into which was introduced a capillary having an I.D. of 100 μm. In place of an electroosmotic pump, a syringe pump operating at 500 μl/min applied to the other end of the capillary was employed. The reading was taken at about 100 mm from the capillary inlet.

Experiment [2] addresses T1, fMLP receptor. Kind of experiment: Calibration study, Cy5-fMLPK fluorescence with cells read with P/ACE. The format is binding. The conditions noted are these: solution 3: 25 μl cells, 25 μl 12 nM Cy5-fMLPK, 0.25 μl 1 mM fMLPK. How it is done:
(§1) In the next study, pumping means was employed to move cells through a capillary. The cells were cultured cells having a high level of the fMLP receptor on the surface. The buffer solution was 140 mM NaCl, 1 mM KH2PO4, 5 mM Na2HPO4, 1.5 mM CaCl2, 0.3 mM MgSO4, 1 mM MgCl2, 0.2% BSA. The cell concentration in the reservoir was 10^6/ml and the receptor concentration was 413 pM. […] The labeled ligand was 4 nM, while the ligand concentration was varied from 2.5 nM to 250 nM. The device was comprised of a reservoir having a volume of 500 μl into which was introduced a capillary having an I.D. of 100 μm. In place of an electroosmotic pump, a syringe pump operating at 500 μl/min applied to the other end of the capillary was employed. The reading was taken at about 100 mm from the capillary inlet. The results are shown in FIGS. 4 and 5, where TR stands for tracer, RC refers to receptor and TRC refers to both Tracer and Receptor.
In and initial study for calibration, four solutions were prepared: (1) 25 μl buffer and 25 μl Cy5-fMLPK; (2) 25 μl cells and 25 μl 12 nM Cy5-fMLPK; (3) 25 μl cells and 25 μl 12 nM Cy5-fMLPK and 0.25 μl 1 mM fMLPK; and (4) 25 μl cells and 25 μl buffer. The flurescence was read with the aid of a P/ACE, which covers a volume of 50 μl.

The target in experiment [3] is T1, fMLP receptor. Kind of experiment: Cy-5-fMLPK fluorescence with cells read with Hitachi fluorimeter. Format: binding. The conditions noted are these: solution 3: 125 μl Cy-5-fMLPK, 125 μl cells, 1 μl 1 mM fMLPK. How it is done: as §1
In the next study four solutions were prepared using the Cy-5 conjugate of fMLPK. The compositions are as follows: (1) 125 μl buffer and 125 μl Cy-5-fMLPK; (2) 125 μl Cy5-fMLPK and 125 μl cells; (3) 125 μl Cy-5-fMLPK, 125 μl cells and 1 μl 1 mM fMLPK; and 125 μl buffer and 125 μl cells. An Hitachi fluorimeter was used to read scence which covers 220 μl. For buffer, the readings were 34,33.

Several values for one entry are separate records, joined by “and”; a condition that tells them apart may be missing. Identical values can stand only once. Where no end group is shown, it is not given here. The star is where a group is joined. For = O=C*

In experiment [1] (fMLPK 2.5 nM), “N-formyl-Met-Leu-Phe-Lys (For-MLFK) [fMLPK]” had a total peak height of 19. In experiment [1] (fMLPK 250 nM), this substance registered a total peak height of under 1. The substance also came in with a total peak height in experiment [1] (fMLPK 2.5 μM) of 0. Also, in experiment [2], the “fluorescence, column A” value was 1,97 and 1.99; the “fluorescence, column B” value was 1.98 and 1.97; the “fluorescence, column C” value is on record as 2.06, 2.06; the “fluorescence, column D” value is 1.95 and 1.99. Moreover, in experiment [3], the “fluorescence, column A” value is 844; the “fluorescence, column C” value came to 826; the “fluorescence, column D” value is 812.
